{"source": "patent US20190224101A1", "binders": {"B1": {"name": "mono-scFv-phage No. 10 (scFv, V domains shown)", "VH": "QVQLVESGGGLIQPGGSLRLSCVASGFTVSSSFMSWVRLAPGKGLEWVALAYSGGNTYYADSVKGRFTVSRDDSSNTLYLQMNSLRAEDTAVYYCSCEGKAVSGSRDLHFEFWSPGTLVTVSS", "VL": "SYELTQAPSLSVSPGQTANIICSGDNLRTKYVSWYQQKPGQAPVLVIYNDNDRPSGIPERFSGTNSGNTAALTISRVEAGDEADYYCQVWDSSSDHLIFGGGTKLTVL"}, "B2": {"name": "mono-scFv-phage No. 6 (scFv, V domains shown)", "VH": "QVQLVESGGGVVRPGGSLRLSCTASGFTFDDHGMSWVRQAPGKGLEWVSTINLNGGSTAYADSVKGRFTISRDNAKNSLYLQMNSLRAEDTAVYYCSTRHLHHWGQGTLVTVSS", "VL": "DIVMTQTPLSSPVTLGQPASISCRSSQSLVHSNGNTYLTWLQQRPGQPPRLLIHKISNRFSGVPDRFSGSGAGTDFTLKISRVEAEDVGVYYCVQAKQFPLTFGQGTRLEIK"}, "B3": {"name": "mono-scFv-phage No. 3 (scFv, V domains shown)", "VH": "QMQLVQSGAEVKKPGASVKVSCKASGYTFTDYYIHWVRQAPGQGLEWMGWINPNSGAPEFAQRFQGRVSMTRDASINTTYMELSGLRSEDTAVYYCVKGLEHAAGSAIFDRWGQGTMVTVSS", "VL": "QTVVTQEPSFSVSPGGTVTLTCGLTSGSVSTSHFPSWYQQTPGQAPRTLIYFKDTRSSGVPDRFSGSILGNKAALTITGAQADDESDYYCALSMGSGIWVFGGGTKLTVL"}, "B4": {"name": "mono-scFv-phage No. 8 (scFv, V domains shown)", "VH": "QVQLVQSGGGVVQPGGSLRLSCAASGFSFNDYAMHWVRQVPGKGLEWVSSISWNSRSTVYAASVEGRFSISRDNSKNSLYLQMNSLRAEDAAVYYCTTDLGVVPAAIYAFDIWGQGTMVTVSS", "VL": "DIQMTQSPSVMSASVGDRVNITCRASQGITNWLAWYQQKPGKAPKLLISAASSLQSGVPSRFSGSGSGTDFTLTISSLQPDDFATYYCQQTATFQITFGQGTRLDIK"}, "B5": {"name": "10F antibody (antibody, V domains shown)", "VH": "B1 VH", "VL": "B1 VL"}, "B6": {"name": "6F antibody (antibody, V domains shown)", "VH": "B2 VH", "VL": "B2 VL"}, "B7": {"name": "3F antibody (antibody, V domains shown)", "VH": "B3 VH", "VL": "B3 VL"}, "B8": {"name": "8F antibody (antibody, V domains shown)", "VH": "B4 VH", "VL": "B4 VL"}}, "data": [{"biological_target": "control cells (Staphylococcus epidermidis), whole cells (Staphylococcus epidermidis)", "experiment": "mono-scFv-phage ELISA on control cells", "units": {"O.D. 450 nm": "O.D. 450 nm"}, "values": [{"binder": "B1", "O.D. 450 nm": 0.0023}, {"binder": "B2", "O.D. 450 nm": 0.0041}, {"binder": "B3", "O.D. 450 nm": 0.0002}, {"binder": "B4", "O.D. 450 nm": 0.0044}]}, {"biological_target": "Propionibacterium acnes (P. acnes) whole cells, surface antigen not identified (Propionibacterium acnes)", "experiment": "mono-scFv-phage ELISA on whole P. acnes", "units": {"ELISA O.D. value": "O.D.", "O.D. 450 nm": "O.D. 450 nm"}, "values": [{"binder": "B1", "ELISA O.D. value": 2.07, "O.D. 450 nm": 1.81}, {"binder": "B2", "ELISA O.D. value": 2.22, "O.D. 450 nm": 1.95}, {"binder": "B3", "ELISA O.D. value": 3.62, "O.D. 450 nm": 3.36}, {"binder": "B4", "ELISA O.D. value": 2.08, "O.D. 450 nm": 1.82}]}, {"biological_target": "control cells (Staphylococcus epidermidis), whole cells (Staphylococcus epidermidis)", "experiment": "IgG ELISA on control cells", "units": {"O.D. 450 nm": "O.D. 450 nm"}, "values": [{"binder": "B5", "O.D. 450 nm": -0.0248}, {"binder": "B6", "O.D. 450 nm": 0.0114}, {"binder": "B7", "O.D. 450 nm": -0.0105}, {"binder": "B8", "O.D. 450 nm": -0.0268}]}, {"biological_target": "Propionibacterium acnes (P. acnes) whole cells, surface antigen not identified (Propionibacterium acnes)", "experiment": "IgG ELISA on whole P. acnes", "units": {"O.D. 450 nm": "O.D. 450 nm"}, "values": [{"binder": "B5", "O.D. 450 nm": 0.00605}, {"binder": "B6", "O.D. 450 nm": 2.36}, {"binder": "B7", "O.D. 450 nm": 0.0149}, {"binder": "B8", "O.D. 450 nm": 2.32}]}]}
